The values below come from article PMC2408616, “Modular Organization and Combinatorial Energetics of Proline–Tyrosine Nuclear Localization Signals” (PLoS Biology, 2008).

T1: MBP–Nab2p NLS R235A (S. cerevisiae, UniProt P32505 201-251, R235A)
T1 sequence: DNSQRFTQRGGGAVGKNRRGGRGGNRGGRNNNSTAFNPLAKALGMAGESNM

T2: MBP–Nab2p NLS R235H (S. cerevisiae, UniProt P32505 201-251, R235 to histidine)
T2 sequence: T1 sequence with A35H

T3: MBP–Nab2p NLS F236L (S. cerevisiae, UniProt P32505 201-251, F236L)
T3 sequence: T1 sequence with A35R, F36L

T4: MBP–Nab2p NLS, all of the arginines mutated to lysines (S. cerevisiae, UniProt P32505 201-251, R218K | R219K | R222K | R226K | R229K)
T4 sequence: T1 sequence with R18K, R19K, R22K, R26K, R29K, A35R

T5: MBP–Nab2p NLS F236A (S. cerevisiae, UniProt P32505 201-251, F236A)
T5 sequence: T1 sequence with A35R, F36A

B1: MBP–Nab2p NLS 210GGG212/AAA (protein)
chain: T1 sequence with G10A, G11A, G12A, A35R
B2: Kap104p (receptor)
chain: MASTWKPAEDYVLQLATLLQNCMSPNPEIRNNAMEAMENFQLQPEFLNYLCYILIEGESDDVLKQHYSLQDLQNNRATAGMLLKNSMLGGNNLIKSNSHDLGYVKSNIIHGLYNSNNNLVSNVTGIVITTLFSTYYRQHRDDPTGLQMLYQLLELTSNGNEPSIKALSKIMEDSAQFFQLEWSGNTKPMEALLDSFFRFISNPNFSPVIRSESVKCINTVIPLQTQSFIVRLDKFLEIIFQLAQNDENDLVRAQICISFSFLLEFRPDKLVSHLDGIVQFMLHLITTVNEEKVAIEACEFLHAFATSPNIPEHILQPYVKDIVPILLSKMVYNEESIVLLEASNDDDAFLEDKDEDIKPIAPRIVKKKEAGNGEDADDNEDDDDDDDDEDGDVDTQWNLRKCSAATLDVMTNILPHQVMDIAFPFLREHLGSDRWFIREATILALGAMAEGGMKYFNDGLPALIPFLVEQLNDKWAPVRKMTCWTLSRFSPWILQDHTEFLIPVLEPIINTLMDKKKDVQEAAISSVAVFIENADSELVETLFYSQLLTSFDKCLKYYKKKNLIILYDAIGRFAEKCALDETAMQIILPPLIEKWALLSDSDKELWPLLECLSCVASSLGERFMPMAPEVYNRAFRILCHCVELEAKSHQDPTIVVPEKDFIITSLDLIDGLVQGLGAHSQDLLFPQGTKDLTILKIMLECLQDPVHEVRQSCFALLGDIVYFFNSELVIGNLEDFLKLIGTEIMHNDDSDGTPAVINAIWALGLISERIDLNTYIIDMSRIILDLFTTNTQIVDSSVMENLSVTIGKMGLTHPEVFSSGAFANDSNWNKWCLSVNALDDVEEKSSAYMGFLKIINLTSTEVTMSNDTIHKIVTGLSSNVEANVFAQEIYTFLMNHSAQISAINFTPDEISFLQQFTS

Common to all, as to experiment: ITC
In general terms: In ITC the heat of successive injections is recorded.

The target in experiment [1] is B2.
The target in experiment [2] is Kap104p (UniProt P38217).
A further experiment deals with T1, MBP–Nab2p NLS R235A.
For the next experiment, the target named is T2, MBP–Nab2p NLS R235H.
Another experiment concerns the target T3, MBP–Nab2p NLS F236L.
The target in experiment [3] is T4, MBP–Nab2p NLS, all of the arginines ….
Another experiment deals with T5, MBP–Nab2p NLS F236A.

Residue numbers refer to the chain shown, from its start.

Consider B1, for which binding with Kap104p [1] was characterised by a dissociation constant (Kd) of 19 nM. Also, in the experiment with Kap104p [2], the ddG was -0.4 kcal/mol and the ratio to parent came to 0.5. Besides, the dissociation constant (Kd) with Kap104p [2] (parent: 37 ± 20) was 19 nM. In addition, the other: TΔS with Kap104p [2] (parent: -1.3 ± 0.6) came to 0.5 kcal/mol. Moreover, the dG in the experiment with Kap104p [2] (parent: -10.0 ± 0.3) was -10.4 kcal/mol. Besides, in the experiment with Kap104p [2] (parent: -11.3 ± 0.5), the other: ΔH is -9.8 kcal/mol.

With B2, the Kd with MBP–Nab2p NLS R235A turned out to be 203 nM; with MBP–Nab2p NLS R235H it was 63 nM; with MBP–Nab2p NLS F236L it was 66 nM; in experiment [3], 21 nM; in the experiment with MBP–Nab2p NLS F236A, 296 nM.

One may read the Kd as a measure of binding affinity in units of concentration.
